{"source": "paper PMC11189522", "about": "“Exploring the sequence-function space of microbial fucosidases” (Communications Chemistry, 2024)", "molecules": {"B1": {"name": "SgGH29^9A (Sphaerochaeta globosa str. Buddy) (protein)", "chain": "MKHEAVQQWLDLQFGLFIHFGLYSLPGGVWKGERITRGYSEQILSHGYLPQADYEALTEQFSLPEFNPKHIVTTAKQAGMRYLVITTKHHDGFCLFDTNTTDYKSTNAACKRDIVKDLSDECKKQGLAFGIYFSWIDWHFSEAAAISSHNSDPIPSSHQRLNIAQLTELLSNYGPMCELWMDMGAPTAEQSQEVYDLVQSLQPQCMVNGRIWNDKQDFLTMGDNQLPAVPLNCPWQTPASIYKETWGYRSWQVRGDRDEKIQELSDTARKVVQEGGNYLLNIGLMGTGAIQSFEQEVLEGIGTVLAKNPLKREQNKRILPKIVPGQLCAEPLVAYRYTGTEYYSYRPIPTTLCWALQLNEDTSICIGWESDQGLAREQKLCLEIAGKQYYSSLQKGRTSDTFITALKLKKGKHEICLHTIGDELKRPELVDTTLRLVLRKEGK"}, "B2": {"name": "SmGH29^1B (Streptococcus mitis B6) (protein)", "chain": "MVREIKPHGPLPSQAQLAYLEDELAAFIHFGPNTFYDQEWGTGQEDSERFNPTRLDAREWVRVLKEMGFKKLILVVKHHDGFVLYPTAYTDYSVKASPWRNGEGDLLLEVSQAATEFDMDMGVYLSPWDAHSPLYHVDQEADYNAYYLAQLKEILSNPAYGNGGKFAEVWMDGARGEGAQKVNYEFEKWFETIRDLQGDCLIFSTEGTSIRWIGNERGYAGDPLWQKVNPDKLGTEAALDYLQHGDSSGTIFSIGEADVSIRPGWFYHEEQDPKSLEELVEIYFHSVGRGTPLLLNIPPNQDGLFDEKDIKRLYEFATYRNELYKEDLALGAKVYGPALSADFACHHLTDGLESSSWASDADLPIQLELDLGFPKTFDVIELREDLKLGQRIAAFHVQVEVDGVWQEFGTGFTVGHKRLLRGPLVEAQKVRVMITESQDLPVLTKISLYKTPSLSQKEVVQGLAFAEKSLSVAKGETLHFRIERSESNTPLEAKISIQPGTGVHGIAYQDEIQVLQFQAGESKKDLCLPTLHFAADKTLDFYLNLTVDGQLVDQLQVQVS"}, "B3": {"name": "RiGH29^2A (Roseburia intestinalis) (protein)", "chain": "MSEQQKEQQLLETVDRIIAEGPYQPAWSSLMQTKTPDWFKQKRFGIFIHWGVYSVPANSNEWYPRNMYIEGMPAYEHHIKTYGSQKDFGYKDFIPMFHAEKFDPAEWVRLFKEAGAGYVFPVAEHHDGFQMYKSELSHWNSAEMGPKRDVLGELKAEIEKQGLTFCTSSHRAEHWFFLGHGKEFDSDIKEPLQKGDLYWPSMPEPDAEDLYGEPYPTEEFLNDWLARTAEIILNYKPSLLYFDWWVQHQAFKPYLKKLAAFYYNCGVKWGKDVKICYKHDAMMFGSGIVEVERGGFAEAKPYDWQTDTAVARNSWCYTDTLDYKSSNEIICTLVDVVSKNGNLLLNIGPKADGTIPDGDRAILEDLAKWMKVNSEAVIGANVWRKSMEGPTAAAEGQFQDQKELKFTNKDYRFTINHGNIYAIALQCPKDGVFCIRSLADSSDQNVPEFHGIIESVDILGYDGRLQWSVDGEGLHVTAPGIDSEFPVVVRVRPE"}, "B4": {"name": "BaGH29^26A (Bifidobacterium asteroides) (protein)", "chain": "MSDTVEWFKQAKYGMMIHWGLYSLLGGEYQGKSSSNYAEWVQSKLQIPNKEYERLTQAFNPIYFDADAIIDLAKRCGMQYLVVTTKHHDGFAMYRSLVDPYNVYDATPFHRDVIGELSLACRKAGLRFGLYYSQDLDWHEPDGGGYLSNDIETAGTTWDNSWDFTGEKNYDRAFKHKIMPQIEEIMSNYGEISVAWFDVPMTLSDEQSQTIYDTVKRLQPDCLINSRLGNGRYDYVSLGDNEIPEDSDASDKATSDGNVDYNSIEGFKPSKLGLYETAGTINDSWGFAYHDQNWKSPQTIHDYKAHLNKYGINYLLNVGLDGLGRVPMAAEQALLGARALEA"}, "B5": {"name": "PgGH29^1B (Porphyromonas gingivalis ATCC 33277) (protein)", "chain": "GQGQEVYYPGSVVFPADATLEQKVEMAAKVVPTLQQLAWQQMELTAFLHFGINTFTDSEWGDGKEDPALFNPVELDARQWVRILHEAGFRMVILTAKHHDGFCLWPTATTRHSVASSPWREGKGDVVKEVRAACEEYGMKFGIYLSPWDRNAECYGDSHRYNRFFVSQLTELLTHYGEVHEVWFDGANGEGPNGKRQEYDWETFYDTIRRLQPQAVMAIMGDDVRWVGNERGLGRTTEWSATVLTPGIYSRSKTERNRLGIRENSPDLGSREVLKEAGEIFWYPSEVDVSIRPGWFYHAAEDKKVKSLDKLVDIYFQSVGYNSVLLLNVPPDRRGLIHEADALRLKEWADYLGRAFAHDRVVDSARYAVVQEHAVEEYALESKTHINILMLQEDITKGQRTEAFTVEAWVDGAWQEIGRGTTIGYKRLLRIPAVETDRIRVRIEQCRLPVNLCRVAVYYAEPPEQVVADESWNDIPRADWKLLSDDPLTIDLGREVMLRAFTYAPYKAEAKPTTAVRYRLAVSEDGRQWREIPTMGEFANVINNPLPQTVDMNQIVRTRFIRLDATAASGDKAVITMQEIGVTVE"}, "B6": {"name": "StGH29^nc (Sphingopyxis terrae subsp. ummariensis) (protein)", "chain": "AATVTGAGLGPQPRFPITGLPVLNPILRLYPEKSVFRSGDIRFGVGELEMMIPFLGTGEIVWSVNVSEAKRYRIALCYSTVNETQPVTISVNGQDVPFAAPRTKGYFIPHPEGPVDDPGDPDTDGFWRMREYYLFERKPVAGEVDLVRGVNVVKLKVTAPKGKEAFRLRSIELTPVDKVAEIEADLTRQRANRANTDWFANAGYGMWFHFLDLTTPRVGPRKSYEDAVNALDVPKLAKMVDDCGARYLIWTVNHGNPTCPAPIKAWERLHPGMTTKRDLIMELADELAKYNIELMLYQNCPGTGGLIQQHQRAIDTPTFSEVEYANQLIDVFNEFGARYGTKVKGWWLDSWFQTMESYPNLPNEAINRAIKSGNRNCMSSFNGWAFPNEVECQDYWCGEITDLPAKPFGARYLKDGPAAGLQAHSAIKLDAPWFHVTENMEMEPPLYSARELADYIAICQRDQAPVTLGVGIYQDGTIGPKSYAVLTELRGLIRKGKARR"}, "B7": {"name": "NyGH29^4A (Niastella yeongjuensis) (protein)", "chain": "QTYSPNWESLDARPAPQWFKDAKFGIFIHWGVYSVPAWAPVGKDYAVYSKYSEWYWNRLVTDSSKVGKAFRAYHNSTYGPNFKYQDFAPLFKAELFNPEQWADVFKNAGAQYVVLTSKHHDGFALWPSAEAWNWNAADVGPHKDLAGELTNAVKEKGLHMGFYYSLYEWFNPLYKSDIDKYVSEHMMPQLKDLVNRYKPDIIWPDGEWEHPSETWKSTQFLAWLYNESPVKNTVVVNDRWGKETRSKHGGYYTTEYDIVHNEDASKKQFEHPWEECRGIGGSFGYNRNETLGDYETSDAVIHMLIQKVARGGNLLLDIGPAADGTIPVIMQQRLADMGAWLKTNGEAIFGTTATKQPSINGAWFTQKNMDLYVILTAKMDKPLTFDLATAPGKATLLGVNKKVTVSYRSGKCTINPLELYPNLPAGGYAWVIKLEGAAGK"}, "B8": {"name": "TfFuc1^8A (Tannerella forsythia 92A2) (protein)", "chain": "PAQPGYTPSADNLKARETFQDDKFGIFIHWGIYSMLADGEWVMHNKNLNWEEYAKLASGFYPAKFNAAEWVAAIKASGAKYITITSRHHDGFSMYATQQSDYNIVDATPFKRDVIHELADECRKQGIRLHLYYSHLDWRRDDYYPLGRTGKGTGRTTQGKWEDYCAFMNNQLTELLTNYGLIGAIWFDGMWDKDIYPDGMTAKTWNLNEQYTLIHRLQPACLIGNNHHITPFAGEDIQIFERDLPGENKAGLSGQDISRLPLETCETMNGMWGYKITDQDYKSTKILIQYLVKAAGKNANLLMNVGPQPNGELPTVAVQRLREMGEWMKIYAPTIQGTRGGVVTPRDWGVTTQKGKTLYVHVLNLDDKALFLPYAGNKLKSAVEYQSRKSVRFIQDRDGILLKFTDKPHSPDYVLELTFANELPLN"}}, "key": {"BaGH29^26A": {"biological_target": "T1, BaGH29^26A (Bifidobacterium asteroides, UniProt A0A0F4KU40)", "T1 construct": "gene JF69_08700", "test": "X-ray crystallography", "format": "binding", "conditions": "co-crystallised with 5 mM 2'FL; active site"}, "[1]": {"tested_on": "C[C@@H]1O[C@@H](Oc2ccc([N+](=O)[O-])cc2Cl)[C@@H](O)[C@H](O)[C@@H]1O", "test": "purified protein", "conditions": "pH 6.0; 37.0 °C"}, "purified protein [2]": {"substrate": "C[C@@H]1O[C@@H](Oc2ccc([N+](=O)[O-])cc2Cl)[C@@H](O)[C@H](O)[C@@H]1O", "test": "purified protein", "format": "biochemical, Sphaerochaeta globosa", "conditions": "50 mM citrate pH 6, 37 °C"}, "purified protein [3]": {"substrate": "C[C@@H]1O[C@@H](Oc2ccc([N+](=O)[O-])cc2Cl)[C@@H](O)[C@H](O)[C@@H]1O", "test": "purified protein", "format": "biochemical, Streptococcus mitis", "conditions": "50 mM citrate pH 6, 37 °C"}, "purified protein [4]": {"substrate": "C[C@@H]1O[C@@H](Oc2ccc([N+](=O)[O-])cc2Cl)[C@@H](O)[C@H](O)[C@@H]1O", "test": "purified protein", "conditions": "pH 6.0; 37.0 °C", "remark": "listed apart in the source"}, "purified protein [5]": {"substrate": "C[C@@H]1O[C@@H](Oc2ccc([N+](=O)[O-])cc2Cl)[C@@H](O)[C@H](O)[C@@H]1O", "test": "purified protein", "format": "biochemical, Bifidobacterium asteroides", "conditions": "50 mM citrate pH 6, 37 °C"}, "purified protein [6]": {"substrate": "C[C@@H]1O[C@@H](Oc2ccc([N+](=O)[O-])cc2Cl)[C@@H](O)[C@H](O)[C@@H]1O", "test": "purified protein", "format": "biochemical, Porphyromonas gingivalis", "conditions": "50 mM citrate pH 6, 37 °C"}, "purified protein [7]": {"substrate": "C[C@@H]1O[C@@H](Oc2ccc([N+](=O)[O-])cc2Cl)[C@@H](O)[C@H](O)[C@@H]1O", "test": "purified protein", "format": "biochemical, Sphingopyxis terrae", "conditions": "50 mM citrate pH 6, 37 °C"}, "purified protein [8]": {"substrate": "C[C@@H]1O[C@@H](Oc2ccc([N+](=O)[O-])cc2Cl)[C@@H](O)[C@H](O)[C@@H]1O", "test": "purified protein", "format": "biochemical, Niastella yeongjuensis", "conditions": "50 mM citrate pH 6, 37 °C"}, "purified protein [9]": {"substrate": "C[C@@H]1O[C@@H](Oc2ccc([N+](=O)[O-])cc2Cl)[C@@H](O)[C@H](O)[C@@H]1O", "test": "purified protein", "format": "biochemical, Tannerella forsythia", "conditions": "50 mM citrate pH 6, 37 °C"}}}
{"molecule": "C[C@@H]1O[C@@H](O)[C@@H](O)[C@H](O)[C@@H]1O", "note": "[Fuc]", "values": [{"measurement": "X-ray crystallography", "setting": "BaGH29^26A", "value": "resulting in a complex with Fuc bound in the active site"}]}
{"molecule": "BsGH29^44B (Bacteroides sp. SM23_62)", "values": [{"measurement": "Km", "setting": "[1]", "value": "299.60 ± 25.340", "unit": "µM"}]}
{"molecule": "FbGH29^26A (Firmicutes bacterium CAG:345)", "values": [{"measurement": "Km", "setting": "[1]", "value": "188.10 ± 32.870", "unit": "µM"}]}
{"molecule": "LaGH29^3A (Lysobacter antibioticus)", "values": [{"measurement": "Km", "setting": "[1]", "value": "208.10 ± 33.240", "unit": "µM"}]}
{"molecule": "RsGH29^3A (Rhodopirellula sp. SWK7)", "values": [{"measurement": "Km", "setting": "[1]", "value": "668.00 ± 69.040", "unit": "µM"}]}
{"molecule": "B1", "values": [{"measurement": "Km", "setting": "purified protein [2]", "value": "495.20 ± 171.80", "unit": "µM"}, {"measurement": "kcat", "setting": "purified protein [2]", "value": 2.4117, "unit": "s⁻¹"}]}
{"molecule": "B2", "values": [{"measurement": "Km", "setting": "purified protein [3]", "value": "289.50 ± 14.610", "unit": "µM"}, {"measurement": "kcat", "setting": "purified protein [3]", "value": 0.865, "unit": "s⁻¹"}]}
{"molecule": "B3", "values": [{"measurement": "Km", "setting": "purified protein [4]", "value": "302.30 ± 7.0500", "unit": "µM"}]}
{"molecule": "B4", "values": [{"measurement": "Km", "setting": "purified protein [5]", "value": "222.00 ± 20.100", "unit": "µM"}, {"measurement": "kcat", "setting": "purified protein [5]", "value": 12.108, "unit": "s⁻¹"}]}
{"molecule": "B5", "values": [{"measurement": "Km", "setting": "purified protein [6]", "value": "302.10 ± 9.6900", "unit": "µM"}, {"measurement": "kcat", "setting": "purified protein [6]", "value": 1.8767, "unit": "s⁻¹"}]}
{"molecule": "B6", "values": [{"measurement": "Km", "setting": "purified protein [7]", "value": "290.60 ± 19.810", "unit": "µM"}, {"measurement": "kcat", "setting": "purified protein [7]", "value": 0.00733, "unit": "s⁻¹"}]}
{"molecule": "B7", "values": [{"measurement": "Km", "setting": "purified protein [8]", "value": "279.80 ± 10.820", "unit": "µM"}, {"measurement": "kcat", "setting": "purified protein [8]", "value": 0.00383, "unit": "s⁻¹"}]}
{"molecule": "B8", "values": [{"measurement": "Km", "setting": "purified protein [9]", "value": "153.70 ± 21.810", "unit": "µM"}, {"measurement": "kcat", "setting": "purified protein [9]", "value": 8.9117, "unit": "s⁻¹"}]}
